This note sets out measurements from US20170002051A1.

One experiment deals with chicken CSF1R (chicken). Kind of experiment: cell-based or functional assay.
For a further experiment, the target named is porcine CSF1R (porcine) (UniProt K9IVS4). Kind of experiment: cell-based or functional assay.

In the experiment with chicken CSF1R (chicken), “recombinant chicken CSF1 (active fragment of chicken CSF-1, expressed in E. coli from pTLW54, refolded) (ligand)” returned a survival/proliferation of BaF/3 cells expressing chicken CSF1R (Cell TiterGlo), EC50 of 20 ng/mL.

Turning to “recombinant porcine CSF1 (from UniProt A0A287BPE2 36-189) (ligand)”, the survival/proliferation of BaF/3 cells expressing porcine CSF1R (Cell TiterGlo), EC50 in the experiment with porcine CSF1R (porcine) is 30 ng/mL.

As to “recombinant human CSF1 (Sigma 6518) (from UniProt P09603 33-190) (ligand)”, the survival/proliferation of BaF/3 cells expressing porcine CSF1R (Cell TiterGlo), EC50 with porcine CSF1R (porcine) was 30 ng/mL.
